Test results from paper PMC4881948, “X-Ray Solution Scattering Study of Four Escherichia coli Enzymes Involved in Stationary-Phase Metabolism” (PLoS ONE, 2016).

Columns and labels:
[1] = target: the molecule itself; assay: SEC + AUC; GadA at pH 7.5: Tris-HCl, 10 mM NaCl, 1 mM DTT pH 7.5; SEC on Superdex 200 10/300 GL, load 5 mg/ml; sedimentation velocity at 20°C, 0.4 mg/ml
[2] = target: the molecule itself; assay: SEC + AUC; GadA at pH 4.6: 100 mM Na-acetate, 10 mM NaCl, 1 mM DTT pH 4.6; SEC on Superdex 200 10/300 GL, load 5 mg/ml; sedimentation velocity at 20°C, 0.4 mg/ml
[3] = target: the molecule itself; assay: SAXS; solution scattering of the single protein, standard 50 mM Tris pH 7.5 buffer, 10°C, four concentrations 1.4-10.8 mg/ml; GadA stored in 100 mM Na-acetate, 10 mM NaCl, 1 mM DTT pH 4.6 and raised to pH 7.5 immediately before; oligomers from molecular mass, rigid-body modelling and OLIGOMER fits

B1: glutamate decarboxylase (GadA) from E. coli (enzyme)
chain: MDQKLLTDFRSELLDSRFGAKAISTIAESKRFPLHEMRDDVAFQIINDELYLDGNARQNLATFCQTWDDENVHKLMDLSINKNWIDKEEYPQSAAIDLRCVNMVADLWHAPAPKNGQAVGTNTIGSSEACMLGGMAMKWRWRKRMEAAGKPTDKPNLVCGPVQICWHKFARYWDVELREIPMRPGQLFMDPKRMIEACDENTIGVVPTFGVTYTGNYEFPQPLHDALDKFQADTGIDIDMHIDAASGGFLAPFVAPDIVWDFRLPRVKSISASGHKFGLAPLGCGWVIWRDEEALPQELVFNVDYLGGQIGTFAINFSRPAGQVIAQYYEFLRLGREGYTKVQNASYQVAAYLADEIAKLGPYEFICTGRPDEGIPAVCFKLKDGEDPGYTLYDLSERLRLRGWQVPAFTLGGEATDIVVMRIMCRRGFEMDFAELLLEDYKASLKYLSDHPKLQGIAQQNSFKHT
notes: glutamate decarboxylase GadA, E. coli; Hexamer at pH 4.6, mixture of hexamers and dimers at pH 7.5; also called GadA low-salt
[1]
  stoichiometry N: 2
[2]
  stoichiometry N: 6

B2: Class I fructose-1,6-bisphosphate aldolase (FbaB) from E. coli (enzyme, UniProt P0A991 1-350, looked up)
chain: MTDIAQLLGKDADNLLQHRCMTIPSDQLYLPGHDYVDRVMIDNNRPPAVLRNMQTLYNTGRLAGTGYLSILPVDQGVEHSAGASFAANPLYFDPKNIVELAIEAGCNCVASTYGVLASVSRRYAHRIPFLVKLNHNETLSYPNTYDQTLYASVEQAFNMGAVAVGATIYFGSEESRRQIEEISAAFERAHELGMVTVLWAYLRNSAFKKDGVDYHVSADLTGQANHLAATIGADIVKQKMAENNGGYKAINYGYTDDRVYSKLTSENPIDLVRYQLANCYMGRAGLINSGGAAGGETDLSDAVRTAVINKRAGGMGLILGRKAFKKSMADGVKLINAVQDVYLDSKITIA
notes: Class I fructose bisphosphate aldolase FbaB, E. coli, UniProt A0A037Y4V8; 350 amino acids, calculated monomer 38.1 kDa; Decamer in solution by SAXS; also called Class I Fba; copies: 10
[3]
  stoichiometry N: 10

B3: inorganic pyrophosphatase (PPase) from E. coli (enzyme)
chain: SLLNVPAGKDLPEDIYVVIEIPANADPIKYEIDKESGALFVDRFMSTAMFYPCNYGYINHTLSLDGDPVDVLVPTPYPLQPGSVIRCRPVGVLKMTDEAGEDAKLVAVPHSKLSKEYDHIKDVNDLPELLKAQIAHFFEHYKDLEKGKWVKVEGWENAEAAKAEIVASFERAKNK
notes: inorganic pyrophosphatase, E. coli; Hexamer in solution by SAXS
[3]
  stoichiometry N: 6
